In publication PMC12239564:

Key:
[1] = target: P. aeruginosa RloA2 (PA0462), residues 18-169 (P. aeruginosa); test: SEC-MALS; 5 mg/mL (289 µM) protein on Superdex 200 Increase 10/300 in 25 mM Tris-HCl pH 7.5, 300 mM NaCl, 0.7 mL/min
[2] = target: P. fluorescens RloA (Pfl01_1762), residues 20-178 (P. fluorescens); test: as above

stoichiometry N [2] | Substance | stoichiometry N [1]
 | P. aeruginosa RloA2 (PA0462), residues 18-169 (enzyme) | 2
2 | P. fluorescens RloA (Pfl01_1762), residues 20-178 (enzyme) | 
